Our source for the Kd values is patent publication US20200247855A1 (published 2020).

What is called Kd is the constant that tells how readily two partners part at equilibrium. Lower therefore signals tighter binding.

What all share (test): BLI
(In general: BLI is a label-free optical method that tracks binding on a fibre tip over time.)

The target in assay [1] is CXCL10_HUMAN (human, UniProt P02778 22-98).
The target in assay [2] is T1, CXCL11_HUMAN (human, UniProt O14625 22-94).
T1 chain: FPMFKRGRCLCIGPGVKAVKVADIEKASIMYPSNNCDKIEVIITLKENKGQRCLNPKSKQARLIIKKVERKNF

The target in assay [3] is CXCL5.
Assay [4] deals with CXCL4.
Assay [5] addresses CXCL2.
Assay [6] deals with CXCL6.
The target in assay [7] is CXCL13.
Assay [8] has as its target CXCL3_HUMAN (human, UniProt P19876 35-107).
For assay [9], the target named is CXCL1_HUMAN (human, UniProt P09341 35-107).
The target in assay [10] is CCL13_HUMAN (human, UniProt Q99616 24-98).
The target of assay [11] is T2, CCL14_HUMAN (human, UniProt Q16627 22-93).
T2 chain: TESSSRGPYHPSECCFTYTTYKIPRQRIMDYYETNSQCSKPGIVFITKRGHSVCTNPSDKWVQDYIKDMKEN

The target in assay [12] is CCL11_HUMAN (human, UniProt P51671 24-97).
The target in assay [13] is T3, CCL8_HUMAN (human, UniProt P80075 24-99).
T3 chain: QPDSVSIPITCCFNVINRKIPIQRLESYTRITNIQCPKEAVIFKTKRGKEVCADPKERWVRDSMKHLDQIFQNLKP

Chain of CXCL1_HUMAN (P09341 35-107): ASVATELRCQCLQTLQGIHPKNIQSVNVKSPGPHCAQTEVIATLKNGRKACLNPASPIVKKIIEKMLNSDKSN
Chain of CXCL10_HUMAN (P02778 22-98): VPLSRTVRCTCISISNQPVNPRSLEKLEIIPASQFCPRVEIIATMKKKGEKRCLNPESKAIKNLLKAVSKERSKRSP
Chain of CXCL3_HUMAN (P19876 35-107): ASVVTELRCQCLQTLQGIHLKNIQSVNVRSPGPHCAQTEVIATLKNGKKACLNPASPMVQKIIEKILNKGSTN
Chain of CCL11_HUMAN (P51671 24-97): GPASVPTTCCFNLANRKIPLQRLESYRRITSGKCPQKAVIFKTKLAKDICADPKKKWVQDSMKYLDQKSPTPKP
Chain of CCL13_HUMAN (Q99616 24-98): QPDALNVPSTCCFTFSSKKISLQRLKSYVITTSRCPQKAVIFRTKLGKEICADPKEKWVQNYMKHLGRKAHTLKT

B1: P675_IXORI (other)
chain: GSNQLSGPQSSANSNDAVFCDTNCTQGTDGAWSGCRGDCFCVHVGNSTEGRCIELIGDFDYSTPGAED
B1: the Kd in [1] stood at 3120 nM; in [2] it was 7.73 nM; in assay [3], 34.2 nM; in assay [4] it was 422 nM; in assay [5] it was 24.8 nM; in assay [6], 7.68 nM. For the same molecule, the Kd in assay [7] turned out to be 582 nM; in [8], 35.7 nM; in [9], 9.99 nM.

B2: P1074_IXORI (other)
chain: GSKESSAHQSSDDSIKAEFCDAKCTMKTDGKWTQCHGGCFCVHVGNETEGRCMRLDGDYDYPSTQPEE
In the case of B2, the dissociation constant Kd worked out at 40.7 nM in assay [1]; 12 nM in assay [2]; 42.7 nM in assay [3]; 157 nM in assay [4]; 95.8 nM in assay [7]; 24 nM in assay [8]. The same molecule displayed a Kd in assay [9] of 27.8 nM.

B3: P1243_AMBAM (other)
chain: RNHTEDNSTEYYDYEEARCACPARHLNNTNGTVLKLLGCHYFCNGTLCTAPDGYPCYNLTAQQVRTLTTYPNTSCAVGVCMKGTCVKNGTMEQCFKTP
Regarding B3, the Kd was 1.64 nM in [10], 6.43 nM in [11], 36.8 nM in assay [12] and 193 nM in assay [13].

B4: P942_IXORI (other)
chain: NQLSGPQSSANSNEAVFCDTNCTQGTDEAWSGCRGDCFCVYVGNSTEGRCMMLSGDFDYSTPGAED
Turning to B4, the Kd in [1] turned out to be 133 nM; in [2], 12.4 nM; in assay [3], 21.1 nM; in assay [4] it was 148 nM; in assay [5], 6.48 nM; in assay [6], 7.28 nM. Moreover, the Kd in assay [7] is 39.5 nM; in assay [8], 5.04 nM; in assay [9], 3.09 nM.

B5: P1100_IXORI (other)
chain: GSKGSSASQSSDNSVVAKFCDTNCTINEGGKWTECKGGCFCVHVGNETVGRCMKLDGDYDYPSPKPEE
In the case of B5, the Kd in assay [1] amounted to 380 nM; in assay [2] it was 102 nM; in assay [3], 50.8 nM; in [5], 185 nM; in assay [6], 15.2 nM; in assay [7], 714 nM. The Kd amounted to 55.9 nM in assay [8] and 49.9 nM in assay [9].

B6: P1080_IXORI (other)
chain: SAGSKGSSAPQSSGDSVVAEFCDTNCTMKKDGKWTECNGDCFCVHVGNETVGRCMRLDGDYDYTSSKTTRRNKKTRNGLCRLDRNRTTVDYPERNTREP
On to B6, for which the Kd came to 1260 nM in assay [1]; 73.3 nM in assay [2]; 56.6 nM in assay [3]; 2310 nM in assay [4]; 392 nM in assay [5]; 11 nM in assay [6]. For the same molecule, the Kd stood at 1110 nM in assay [7], 124 nM in [8] and 55.1 nM in assay [9].

B7: P1090_IXORI (other)
chain: GSKELSGPESSENSIEAAFCDTNCTEGTDGVWSGCSAGCFCVHVGNSTVGRCMTFNGVDGG
Take B7: the Kd in [1] worked out at 23.9 nM; in assay [2], 3.85 nM; in assay [3] it was 43 nM; in [5] it was 3.03 nM; in [6], 2.82 nM; in assay [7] it was 12.5 nM. In addition, the Kd in assay [8] was determined as 7.67 nM; in [9], 3.55 nM.
